From patent US9664683B2, “Profiling of signal pathway proteins to determine therapeutic efficacy” (Nestec S.A., priority 2011, dated 2017)

Columns and labels:
PI3K pathway = experiment: CEER-FNA pathway profiling of breast cancer tumor samples exposed to anti-cancer therapy; type: cell-based; conditions: breast cancer tumor samples exposed to AKT inhibitor and/or Lapatinib; FIG. 17
Text: The breast cancer tumor samples were exposed to AKT inhibitor and/or Lapatinib (a tyrosine kinase inhibitor). This example illustrates that cancer cells can adapt to therapeutic pressure due to drug therapy. […] FIG. 17 illustrates CEER-FNA analysis of biomarkers in pathway profiling of breast cancer cell samples after treatment with an AKT inhibitor, Lapatinib (a tyrosine kinase inhibitor) or combination therapy.

[1] = system: HER2 heterodimers and PI3K; experiment: Proximity based dimer/complex assay in MCF7 cells; type: cell-based, human; conditions: response to ligand, FIG. 20
Text: FIG. 1A-C show one embodiment of the foregoing proximity assay for detection of dimerization of receptor tyrosine kinases. […] A first detection antibody 115 is then used to bind to a different portion (e.g., epitope) on HER2. A second detection 120 antibody is thereafter used to bind to the dimerized second receptor tyrosine 1kinase e.g., HER3 125. The first detection antibody comprises one or a plurality of first activation state-independent antibodies specific for one member of the dimer, whereas a second detection antibody or a plurality of second detection antibodies is specific for the other member of the dimer. The first detection antibody is labeled with a facilitating moiety e.g., glucose oxidase (GO) and the second detection antibody is labeled with a first member of a signal amplification pair e.g., horseradish peroxidase (HRP). The facilitating moiety generates an oxidizing agent e.g., hydrogen peroxide, which channels to and reacts with the first member of the signal amplification pair. Thereafter, the plurality of detectable captured analytes are incubated with a second member of the signal amplification pair e.g., tyramide or tyramide biotin to generate an amplified signal, which is then detected. […]

PI3K complex = experiment: Proximity (CEER) assay detecting PI3K complexes in T47D cells; type: cell-based, human; conditions: T47D cells treated with heregulin (HRG), compared to non-treated cells; FIG. 4C
Text: FIG. 4C illustrates the detection of activated PI3K complexes in T47D cells (human ductal breast epithelial tumor cell line) treated with heregulin (HRG), compared to non-treated cells. In some embodiments, the detection of PI3K complexes will also correlate with the detection of activated (e.g., phosphorylated) PI3K. […]

CS(=O)(=O)CCNCc1ccc(-c2ccc3ncnc(Nc4ccc(OCc5cccc(F)c5)c(Cl)c4)c3c2)o1 [Lapatinib, lapatinib]
levels of phosphorylated pathway proteins after treatment (PI3K pathway): Higher levels of phosphorylated PI3K, AKT, ERK

EGF: pathway activating ligand used to stimulate MCF7 cells
activation of HER2 heterodimers and PI3K [1]: activation of HER2 heterodimers and PI3K

heregulin [HRG]
detection of PI3K complexes (PI3K complex): PI3K complexes were detected | activation of HER2 heterodimers and PI3K [1]: activation of HER2 heterodimers and PI3K
